Measurements from article PMC12494784 (Nature Communications, 2025).
Positions count from the first letter of the chain named. In names and notes the source's numbering stands.

Key:
[1] = target: calmodulin (UniProt P0DP23); assay: cryo-EM structure
[2] = target: the molecule itself; assay: cryo-EM structure

B1: truncated Xenopus laevis KCNQ1 (residues 67-610), wild type (domain or fragment)
chain: ATDPPRPTINLDPRVSIYSGRRPLLSRTNIQGRVYNFLERPTGWKCFVYHFTVFLIVLICLIFSVLSTIQQYNNLATETLFWMEIVLVVFFGAEYVVRLWSAGCRSKYVGVWGRLRFARKPISVIDLIVVVASVIVLCVGSNGQVFATSAIRGIRFLQILRMLHVDRQGGTWRLLGSVVFIHRQELITTLYIGFLGLIFSSYFVYLAEKDAIDSSGEYQFGSYADALWWGVVTVTTIGYGDKVPQTWIGKTIASCFSVFAISFFALPAGILGSGFALKVQQKQRQKHFNRQIPAAASLIQTAWRCYAAENPDSATWKIYIRKQSRNHHLMSPSPKPKKSAMVKKKKIRTERDEGSTDKMLNIPHITYDHVADDRKNDGYSVESYENTVRKPFGFLDPSTGPFIRTSSFTDDLDMEGDTLLTPITHISELKEHHRAAIKVIRRMQYFVAKKKFQQARKPYDVRDVIEQYSQGHLNLMVRIKELQRRLDQSLGKPSLFLSVSDKVKDKGINTIGSRLNRVEDKVTQMDHKLNLITDMLHHLLTNQQ
Question: Does B1 bind [1]?
Answer: binds

Question: And the “stoichiometry N” value [2]?
Answer: 4

B2: Xenopus KCNQ1 E150R/R221E (residues 67-610) (domain or fragment)
chain: B1 chain with E84R, R155E
Question: Does B2 bind [1]?
Answer: binds
